No end group written: not given here.
Biological target: T1, recombinant mouse CD74 (mouse, UniProt P04441 56-279, limits assumed)
T1 construct: Bought (Abcam); also called recombinant CD74
T1 sequence (looked up): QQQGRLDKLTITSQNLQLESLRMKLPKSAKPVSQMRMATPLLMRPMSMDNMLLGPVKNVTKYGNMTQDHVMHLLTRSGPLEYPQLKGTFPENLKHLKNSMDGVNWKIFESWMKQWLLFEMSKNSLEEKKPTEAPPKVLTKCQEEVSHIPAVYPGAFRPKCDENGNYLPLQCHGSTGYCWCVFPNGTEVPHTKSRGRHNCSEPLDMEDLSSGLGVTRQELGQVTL
Assay: chemiluminescent dot-blotting, peptide on nitrocellulose, recombinant CD74 in solution
Procedure: Membranes were washed and incubated with primary mouse anti-CD74 or anti-MIF (both from Abcam, Cambridge, UK), washed and incubated with secondary anti-mouse IgG-HRP. Immunoreactivity was determined using the ECL Western Blotting Substrate (Millipore, Billerica, Mass.), and signal was detected in a trans-illuminator Uvitec, Cambridge, UK).

binding result: no binding
B1: Rb10A1 (peptide)
peptide: AARGETARATFAYWGQG-NH2
notes: Linear peptide; N-terminal Cys of Rb10 replaced by alanine; also called A1C

From US20210147534A1 (RECEPTA BIOPHARMA S A, published 2021)
